The text below walks through data of article PMC6175577, “BRCT domains of the DNA damage checkpoint proteins TOPBP1/Rad4 display distinct specificities for phosphopeptide ligands” (eLife, 2018).

Assay [1] concerns the target RHNO1 pT202 fluorescein-labelled phosphopeptide (human). Kind of assay: fluorescence polarisation; fluorescein-labelled peptide at 200 nM, increasing concentrations of recombinant protein; room temperature; 25 mM HEPES pH 7.5, 150 mM NaCl, 1 mM EDTA, 0.25 mM TCEP, 0.02% Tween-20; one site-specific binding model. (Polarisation of emitted light reports the rotation of a fluorescent probe.)

Assay [2] concerns the target RAD9 pS387 (Homo sapiens) (UniProt Q99638). Particulars: cited from earlier work.
The target in another assay is TOPBP1 BRCT0,1,2 (UniProt Q92547). Nature of the assay: fluorescence polarisation titration. Particulars: reference: pT202 peptide, untreated; sites T202.

Chain of RAD9 pS387 (Homo sapiens) (Q99638 whole entry): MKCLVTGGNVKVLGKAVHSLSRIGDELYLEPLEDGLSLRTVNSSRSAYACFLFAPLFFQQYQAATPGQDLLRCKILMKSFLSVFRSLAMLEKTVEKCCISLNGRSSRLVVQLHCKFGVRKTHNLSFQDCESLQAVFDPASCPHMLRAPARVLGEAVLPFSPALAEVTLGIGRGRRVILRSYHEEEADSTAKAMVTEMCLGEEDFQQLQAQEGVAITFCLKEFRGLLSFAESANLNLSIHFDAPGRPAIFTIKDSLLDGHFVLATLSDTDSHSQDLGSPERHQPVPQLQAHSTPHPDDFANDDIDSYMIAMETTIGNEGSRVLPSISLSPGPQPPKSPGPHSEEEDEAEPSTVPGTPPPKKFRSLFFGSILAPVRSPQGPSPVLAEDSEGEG
Chain of TOPBP1 BRCT1 (Q92547 98-192): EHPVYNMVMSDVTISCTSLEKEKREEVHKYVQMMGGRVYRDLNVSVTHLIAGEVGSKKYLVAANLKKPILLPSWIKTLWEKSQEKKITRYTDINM

On to “TOPBP1-BRCT0,1,2 segment, wild type (recombinant, fluorescence polarisation) (domain or fragment)”, for which the fold tighter binding than RAD9-pS387 in assay [1] came to 10 fold.

As usually defined, the Kd is the equilibrium constant for the complex coming apart. TOPBP1 BRCT1 (from UniProt Q92547): the Kd in assay [2] is 2100 nM. In the case of “RHNO1 (from UniProt Q9BSD3) λ-phosphatase-dephosphorylated peptide”, the “binding against the reference” value with TOPBP1 BRCT0,1,2 is “lost”.
